Laboratory results taken from patent publication US20120003668A1, “HIGH RESOLUTION COMPLEX STRUCTURE AND ALLOSTERIC EFFECTS OF LOW MOLECULAR WEIGHT ACTIVATORS ON THE PROTEIN KINASE PDK1” (UNIVERSITAET DES SAARLANDES, priority 2008, published 2012).
Changes are numbered by the printed parent chain.

Legend:
PDK1[Phe224Trp] [1] = biological target: T1, PDK1[Phe224Trp] (Homo sapiens, UniProt O15530, F224W); assay: PDK1 protein kinase activity test with T308tide substrate, Phe224Trp mutant; assay type: biochemical; settings: PDK1 CD 50-359, T308tide as substrate
T1 construct: The catalytic domain (CD) of PDK1 50-359 and its mutants Phe224Trp and Thr226Trp were expressed in insect cells and purified; made in house; host or cells: insect cells
T1 sequence (O15530 50-359 F224W): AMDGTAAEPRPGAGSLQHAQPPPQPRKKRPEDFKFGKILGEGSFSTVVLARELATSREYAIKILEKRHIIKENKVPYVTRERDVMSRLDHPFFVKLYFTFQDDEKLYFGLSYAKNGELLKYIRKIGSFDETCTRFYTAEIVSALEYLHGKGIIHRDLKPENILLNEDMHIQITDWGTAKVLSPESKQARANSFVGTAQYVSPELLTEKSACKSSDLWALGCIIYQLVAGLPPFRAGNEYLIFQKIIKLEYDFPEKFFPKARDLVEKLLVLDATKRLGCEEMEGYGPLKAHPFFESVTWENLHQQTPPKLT
Protocol: Protein kinase activity tests: PDK1 activity tests were performed essentially as previously described (Biondi, R. M. et al., Embo. J. 20:4380-4390 (2001); Balendran, A. et al., J. Biol. Chem. 275:20806-20813 (2000); Biondi, R. M. et al., Embo. J. 19:979-988 (2000)) using T308tide as a substrate for PDK1. In brief, PDK1 activity assay was performed at room temperature (22° C.) in a 20 μl mix containing 50 mM Tris pH 7.5, 0.05 mg/ml BSA, 0.1% β-mercaptoethanol, 10 mM MgCl2, 100 μM [γ^32P]ATP (5-50 cpm/pmol), 0.003% Brij, 150 ng PDK1, and T308tide (from 0.1 to 1 mM). When appropriate, the PDK1 activity assay was performed in a 96 well format and 4 μl aliquots spotted with on p81 phosphocellulose papers (Whatmann) using ep motion 5070 (Eppendorf), washed in 0.01% phosphoric acid, dried, and then exposed and analysed using PhosphoImager technology (Typhoon, GE Healthcare). Activity measurements were performed in duplicates with less than 10% difference between pairs. Experiments were repeated at least twice. PDK1 specific activity at 22° C. was approximately 0.25 U/mg when the substrate concentration was 0.1 mM T308tide. […]

PDK1 CD wt = biological target: T2, PDK1 CD wt (Homo sapiens, UniProt O15530); assay: Surface plasmon resonance (BiaCore) on biotin-P-HM-S6K chip; assay type: binding; settings: protein pre-incubated with PIFtide
T2 construct: PDK1 CD (50-359), wt (0.35 μM), PDK1 [Phe224Trp] or PDK1 [Thr226Trp] were injected onto the system; GST (N); made in house; host or cells: insect cells
T2 sequence (O15530 50-359): T1 sequence (O15530 50-359 F224W) with W175F
Protocol: (§1) Surface Plasmon resonance (BiaCore) and alpha-screen interaction and displacement assays: Binding of GST-PDK1 to a P-HM-polypeptide derived from S6K1 shown in FIG. 6 was analysed by surface plasmon resonance on a BiaCore 3000 system using a streptavidin-coated Sensor chip (SA) and biotin-P-HM-polypeptide, as previously described (Biondi, R. M. et al., Embo. J. 20:4380-4390 (2001). The interaction of His-PDK1 with biotin-PIFtide and the displacement by compounds shown in FIG. 3 was performed using the alpha-screen Ni-Chelate kit (Perkin Elmer) on an Envision 2104 multilabel system (Perkin Elmer).
(§2) BiaCore analysis was performed as described previously (Biondi, R. M. et al., Embo. J. 19:979-988 (2000)). […] Since both mutants were performed on the same construct of PDK1, their mass should be very similar and therefore should also produce 600RU when all biotin-(P)HM-S6K polypeptides on the same chip are bound to the mutant PDK1 proteins. Unfortunately, when mutant PDK1 Phe224Trp and PDK1 Thr226Trp were analysed, the injection of the mutants at concentrations higher than 1.3 μM prompted unspecific effects, therefore making difficult the evaluation. […]

PDK1[Phe224Trp] [2] = biological target: T1, PDK1[Phe224Trp]; assay: Surface plasmon resonance (BiaCore) on biotin-P-HM-S6K chip, Phe224Trp mutant; assay type: binding; settings: protein pre-incubated with PIFtide
Protocol: as §1, §2

PDK1[Thr226Trp] = biological target: T3, PDK1[Thr226Trp] (Homo sapiens, UniProt O15530, T226W); assay: Surface plasmon resonance (BiaCore) on biotin-P-HM-S6K chip, Thr226Trp mutant; assay type: binding; settings: protein pre-incubated with PIFtide
T3 construct: The catalytic domain (CD) of PDK1 50-359 and its mutants Phe224Trp and Thr226Trp were expressed in insect cells and purified; made in house; host or cells: insect cells
T3 sequence (O15530 50-359 T226W): T1 sequence (O15530 50-359 F224W) with W175F, T177W
Protocol: as §1, §2

displacement by PIFtide of PDK1 binding to biotin-P-HM-S6K (PDK1 CD wt): displaced
displacement by PIFtide of PDK1[Phe224Trp] binding to the chip (PDK1[Phe224Trp] [2]): displaced
displacement by PIFtide of PDK1[Thr226Trp] binding to the chip (PDK1[Thr226Trp]): displaced
Sequence: REPRILSEEEQEMFRDFDYIADWC [PIFtide, polypeptide derived from the C-terminal 24 amino acids of the PDK1 substrate PRK2]
activation of PDK1[Phe224Trp] (PDK1[Phe224Trp] [1]): activated
